For assay [1], the target named is biotinylated bovine FI (bovine). In words: BLI; Octet RED96; biotinylated bovine FI (150 nM) on streptavidin biosensors; PmSLP-1 as analyte at 0, 5, 16, 50, 160, 500, 1600 nM; 30 °C; PBS pH 7.4, 0.01% Tween 20; steady-state analysis, one-site model.
In assay [2] the target is biotinylated bovine FI. In words: biolayer interferometry. The following applies: n = 3; parent: 27 ± 3 nM.

PmSLP-1^15-318 (domain or fragment): the Kd in assay [1] was determined as 27 nM. Take PmSLP-1^15-318 D121A: the Kd in assay [2] amounted to 117 nM. Same read-out and setting: with PmSLP-1^15-318 D124R the figure was 53 nM; with PmSLP-1^15-318 D210A, 272 nM. PmSLP-1^15-318 E132R: the Kd in assay [2] turned out to be 28 nM. Same read-out and setting: to PmSLP-1^15-318 I133D belongs 43 nM; to PmSLP-1^15-318 K236E, 32 nM; to PmSLP-1^15-318 L127D, 85 nM.

Take PmSLP-1^15-318 R167A: in assay [2], the Kd was 107 nM.

For the origin of these results see paper PMC12080921.
